Reference: patent US20150266974A1 (RINAT NEUROSCIENCE, published 2015)

Assays:
[1] = target: T1, mouse PCSK9 (mouse, UniProt Q80W65 35-694, limits assumed); assay: SPR Biacore 3000, captured IgG, mPCSK9 injected, pH 5.5
T1 construct: also called mPCSK9; msPCK9
Description: (§1) These antibodies were expressed and purified for determination of their KD at 7.4 and their KD ratio of pH5.5/pH 7.4, as measured on a surface plasmon resonance Biacore 3000 biosensor equipped with a research-grade sensor chip using HBS-EP running buffer (Biacore AB, Uppsala, Sweden—now GE Healthcare). Rabbit polyclonal anti-Ms IgGs were amine-coupled at saturating levels onto the chip using a standard N-hydroxysuccinimide/ethyldimethylaminopropyl carbodiimide (NHS/EDC) chemistry. The buffer was switched to HBS-EP+1 mg/mL BSA+1 mg/mL CM-dextran. Full-length PCSK9 IgGs were diluted to about 15 μg/mL and captured for 1 min at 5 μL/min to give levels of about 500 RU per flow cell, leaving one blank to serve as a reference channel. […] Dissociation was monitored for 5 min. The chip was regenerated after the last injection of each titration with two 30 sec pulses of 100 mM phosphoric acid. Buffer cycles provided blanks for double-referencing the data, which were then fit globally to a simple binding model using Biaevaluation software v.4.1. Affinities were deduced from the quotient of the kinetic rate constants (KD=koff/kₒₙ).

[2] = target: T1, mouse PCSK9; assay: SPR Biacore 3000, captured IgG, mPCSK9 injected, pH 7.4
Description: as §1

[3] = target: T2, human PCSK9 (human, UniProt Q8NBP7 31-692, limits assumed); assay: SPR Biacore 3000, KD at pH 5.5 over KD at pH 7.4
T2 construct: also called hPCSK9; huPCSK9
Description: as §1

[4] = target: T1, mouse PCSK9; assay: SPR Biacore 3000, KD at pH 5.5 over KD at pH 7.4
Description: as §1

[5] = target: T2, human PCSK9; assay: SPR Biacore 3000, captured IgG, hPCSK9 injected, pH 5.5
Description: as §1

[6] = target: T2, human PCSK9; assay: SPR Biacore 3000, captured IgG, hPCSK9 injected, pH 7.4
Description: as §1

T1 sequence (Q80W65 35-694 limits assumed): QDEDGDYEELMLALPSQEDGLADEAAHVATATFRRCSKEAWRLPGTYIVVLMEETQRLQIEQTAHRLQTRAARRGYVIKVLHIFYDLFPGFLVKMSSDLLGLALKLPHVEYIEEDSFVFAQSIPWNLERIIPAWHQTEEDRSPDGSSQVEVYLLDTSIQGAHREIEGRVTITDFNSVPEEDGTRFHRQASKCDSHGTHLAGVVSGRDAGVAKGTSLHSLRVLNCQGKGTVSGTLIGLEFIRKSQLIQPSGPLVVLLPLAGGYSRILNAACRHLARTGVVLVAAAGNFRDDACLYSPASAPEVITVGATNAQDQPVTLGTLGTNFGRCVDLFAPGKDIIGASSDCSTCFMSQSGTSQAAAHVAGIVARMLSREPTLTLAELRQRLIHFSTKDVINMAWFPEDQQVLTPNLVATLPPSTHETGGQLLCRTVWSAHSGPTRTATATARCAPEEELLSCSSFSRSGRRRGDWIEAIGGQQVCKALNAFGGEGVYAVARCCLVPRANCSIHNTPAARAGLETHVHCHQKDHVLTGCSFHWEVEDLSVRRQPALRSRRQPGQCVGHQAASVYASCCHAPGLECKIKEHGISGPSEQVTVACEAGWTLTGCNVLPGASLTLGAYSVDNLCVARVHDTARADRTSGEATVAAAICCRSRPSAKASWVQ
T2 sequence (Q8NBP7 31-692 limits assumed): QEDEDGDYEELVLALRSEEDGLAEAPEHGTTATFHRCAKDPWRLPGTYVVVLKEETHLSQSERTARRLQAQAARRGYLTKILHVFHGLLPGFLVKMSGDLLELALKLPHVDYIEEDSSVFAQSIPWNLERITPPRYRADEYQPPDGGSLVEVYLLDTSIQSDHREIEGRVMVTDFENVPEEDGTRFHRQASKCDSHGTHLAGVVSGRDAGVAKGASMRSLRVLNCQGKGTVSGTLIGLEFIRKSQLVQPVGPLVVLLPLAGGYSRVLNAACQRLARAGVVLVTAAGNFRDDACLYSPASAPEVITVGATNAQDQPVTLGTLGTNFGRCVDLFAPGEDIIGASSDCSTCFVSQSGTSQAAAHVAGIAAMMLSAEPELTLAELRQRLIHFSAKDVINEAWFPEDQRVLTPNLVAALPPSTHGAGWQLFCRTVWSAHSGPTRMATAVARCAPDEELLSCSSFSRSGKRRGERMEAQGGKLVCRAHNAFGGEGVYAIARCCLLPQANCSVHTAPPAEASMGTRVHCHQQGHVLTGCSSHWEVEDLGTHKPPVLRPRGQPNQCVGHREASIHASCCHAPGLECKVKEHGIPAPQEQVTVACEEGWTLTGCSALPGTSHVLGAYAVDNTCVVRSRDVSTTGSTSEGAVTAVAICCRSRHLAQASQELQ

B1: 5L1721H23_6L3H3 (antibody, V domains shown)
VH: QVQLVQSGAEVKKPGASVKVSCKASGYTFTSYYMHWVRQAPGQGLEWMGEIHPSGGRTNYNEKFKSRVTMTRDTSTSTVYMELSSLRSEDTAVYYCARERPLYASDLWGQGTTVTVSS
VL: DIQMTQSPSSLSASVGDRVTITCKASQDVHTAVAWYQQKPGKAPKLLIYHASYRYTGVPSRFSGSGSGTDFTFTISSLQPEDIATYYCQQRYSLWRTFGQGTKLEIK
notes: Tested as full-length IgG; also called heavy UC-H5H23-6H3, light UC-H5L1721-6L3
Kd [1]: 117 nM
koff [1]: 0.0187 s⁻¹
kon [1]: 160000 M⁻¹ s⁻¹
Kd [2]: 8.1 nM
koff [2]: 0.000516 s⁻¹
kon [2]: 63700 M⁻¹ s⁻¹

B2: 5L1721H23 (antibody, V domains shown)
VH: QVQLVQSGAEVKKPGASVKVSCKASGYTFTSYYMHWVRQAPGQGLEWMGEIHPSGGRTNYNEKFKSRVTMTRDTSTSTVYMELSSLRSEDTAVYYCARERPLYAMDYWGQGTTVTVSS
VL: DIQMTQSPSSLSASVGDRVTITCKASQDVHTAVAWYQQKPGKAPKLLIYHASYRYTGVPSRFSGSGSGTDFTFTISSLQPEDIATYYCQQRYSTPRTFGQGTKLEIK
notes: Triple histidine mutant of h5A10; Only CDRs printed; Full-length IgG
KD ratio pH 5.5/7.4 [3]: 11.1
KD ratio pH 5.5/7.4 [4]: 25
Kd [5]: 144 nM
koff [5]: 0.0179 s⁻¹
kon [5]: 124000 M⁻¹ s⁻¹
Kd [6]: 13 nM
koff [6]: 0.000399 s⁻¹
kon [6]: 31700 M⁻¹ s⁻¹
Kd [1]: 576 nM
koff [1]: 0.0588 s⁻¹
kon [1]: 102000 M⁻¹ s⁻¹
Kd [2]: 23 nM
koff [2]: 0.00141 s⁻¹
kon [2]: 61200 M⁻¹ s⁻¹

B3: 6L1721 (antibody, V domains shown)
VH: QVQLVQSGAEVKKPGASVKVSCKASGYTFTSYYMHWVRQAPGQGLEWMGEISPFGGRTNYNEKFKSRVTMTRDTSTSTVYMELSSLRSEDTAVYYCARERPLYASDLWGQGTTVTVSS
VL: DIQMTQSPSSLSASVGDRVTITCRASQGIHSALAWYQQKPGKAPKLLIYHASYRYTGVPSRFSGSGSGTDFTFTISSLQPEDIATYYCQQRYSLWRTFGQGTKLEIK
notes: L1L3-based mutant; Tested as full-length IgG
KD ratio pH 5.5/7.4 [3]: 2.3
KD ratio pH 5.5/7.4 [4]: 2
Kd [5]: 5.1 nM
koff [5]: 0.00084 s⁻¹
kon [5]: 166000 M⁻¹ s⁻¹
Kd [6]: 2.2 nM
koff [6]: 7.08e-05 s⁻¹
kon [6]: 32900 M⁻¹ s⁻¹
Kd [1]: 5.2 nM
koff [1]: 0.00177 s⁻¹
kon [1]: 338000 M⁻¹ s⁻¹
Kd [2]: 2.6 nM
koff [2]: 0.000228 s⁻¹
kon [2]: 88000 M⁻¹ s⁻¹

B4: 5L1724H23 (antibody, V domains shown)
VH: QVQLVQSGAEVKKPGASVKVSCKASGYTFTSYYMHWVRQAPGQGLEWMGEIHPSGGRTNYNEKFKSRVTMTRDTSTSTVYMELSSLRSEDTAVYYCARERPLYAMDYWGQGTTVTVSS
VL: DIQMTQSPSSLSASVGDRVTITCKASQDVHTAVAWYQQKPGKAPKLLIYSASHRYTGVPSRFSGSGSGTDFTFTISSLQPEDIATYYCQQRYSTPRTFGQGTKLEIK
notes: as for B2
Kd [5]: 39 nM
koff [5]: 0.00793 s⁻¹
kon [5]: 203000 M⁻¹ s⁻¹
Kd [1]: 74 nM
koff [1]: 0.0202 s⁻¹
kon [1]: 273000 M⁻¹ s⁻¹

B5: 5L1721H23_6H3 (antibody, V domains shown)
VH: QVQLVQSGAEVKKPGASVKVSCKASGYTFTSYYMHWVRQAPGQGLEWMGEIHPSGGRTNYNEKFKSRVTMTRDTSTSTVYMELSSLRSEDTAVYYCARERPLYASDLWGQGTTVTVSS
VL: DIQMTQSPSSLSASVGDRVTITCKASQDVHTAVAWYQQKPGKAPKLLIYHASYRYTGVPSRFSGSGSGTDFTFTISSLQPEDIATYYCQQRYSTPRTFGQGTKLEIK
notes: Only CDRs printed; Full-length IgG
KD ratio pH 5.5/7.4 [3]: 7.5
KD ratio pH 5.5/7.4 [4]: 13.9
Kd [5]: 55 nM
koff [5]: 0.00772 s⁻¹
kon [5]: 141000 M⁻¹ s⁻¹
Kd [6]: 7.3 nM
koff [6]: 0.000273 s⁻¹
kon [6]: 37400 M⁻¹ s⁻¹
Kd [1]: 111 nM
koff [1]: 0.0341 s⁻¹
kon [1]: 307000 M⁻¹ s⁻¹
Kd [2]: 8 nM
koff [2]: 0.000899 s⁻¹
kon [2]: 113000 M⁻¹ s⁻¹

B6: 5L1724H23_6L3H3 (antibody, V domains shown)
VH: QVQLVQSGAEVKKPGASVKVSCKASGYTFTSYYMHWVRQAPGQGLEWMGEIHPSGGRTNYNEKFKSRVTMTRDTSTSTVYMELSSLRSEDTAVYYCARERPLYASDLWGQGTTVTVSS
VL: DIQMTQSPSSLSASVGDRVTITCKASQDVHTAVAWYQQKPGKAPKLLIYSASHRYTGVPSRFSGSGSGTDFTFTISSLQPEDIATYYCQQRYSLWRTFGQGTKLEIK
notes: as for B5
KD ratio pH 5.5/7.4 [3]: 5.5
KD ratio pH 5.5/7.4 [4]: 9.6
Kd [5]: 83 nM
koff [5]: 0.00789 s⁻¹
kon [5]: 95500 M⁻¹ s⁻¹
Kd [6]: 15 nM
koff [6]: 0.000342 s⁻¹
kon [6]: 22300 M⁻¹ s⁻¹
Kd [1]: 125 nM
koff [1]: 0.0263 s⁻¹
kon [1]: 211000 M⁻¹ s⁻¹
Kd [2]: 13 nM
koff [2]: 0.000827 s⁻¹
kon [2]: 63100 M⁻¹ s⁻¹

B7: 5L1724H35 (antibody, V domains shown)
VH: QVQLVQSGAEVKKPGASVKVSCKASGYTFTSYYMHWVRQAPGQGLEWMGEINPSGGRTNYNEKFKSRVTMTRDTSTSTVYMELSSLRSEDTAVYYCARERPLHAMDYWGQGTTVTVSS
VL: DIQMTQSPSSLSASVGDRVTITCKASQDVHTAVAWYQQKPGKAPKLLIYSASHRYTGVPSRFSGSGSGTDFTFTISSLQPEDIATYYCQQRYSTPRTFGQGTKLEIK
notes: as for B2
Kd [2]: 35 nM
koff [2]: 0.00153 s⁻¹
kon [2]: 44300 M⁻¹ s⁻¹

B8: 5L1721H23_6L3 (antibody, V domains shown)
VH: QVQLVQSGAEVKKPGASVKVSCKASGYTFTSYYMHWVRQAPGQGLEWMGEIHPSGGRTNYNEKFKSRVTMTRDTSTSTVYMELSSLRSEDTAVYYCARERPLYAMDYWGQGTTVTVSS
VL: DIQMTQSPSSLSASVGDRVTITCKASQDVHTAVAWYQQKPGKAPKLLIYHASYRYTGVPSRFSGSGSGTDFTFTISSLQPEDIATYYCQQRYSLWRTFGQGTKLEIK
notes: Tested as full-length IgG; also called heavy UC-H5H23, light UC-H5L1721-6L3
KD ratio pH 5.5/7.4 [3]: 37.2
KD ratio pH 5.5/7.4 [4]: 29.1
Kd [5]: 257 nM
koff [5]: 0.0166 s⁻¹
kon [5]: 64500 M⁻¹ s⁻¹
Kd [6]: 6.9 nM
koff [6]: 0.000214 s⁻¹
kon [6]: 30900 M⁻¹ s⁻¹
Kd [1]: 408 nM
koff [1]: 0.0428 s⁻¹
kon [1]: 105000 M⁻¹ s⁻¹
Kd [2]: 14 nM
koff [2]: 0.000676 s⁻¹
kon [2]: 47500 M⁻¹ s⁻¹

B9: 6L1721H23 (antibody, V domains shown)
VH: QVQLVQSGAEVKKPGASVKVSCKASGYTFTSYYMHWVRQAPGQGLEWMGEIHPFGGRTNYNEKFKSRVTMTRDTSTSTVYMELSSLRSEDTAVYYCARERPLYASDLWGQGTTVTVSS
VL: DIQMTQSPSSLSASVGDRVTITCRASQGIHSALAWYQQKPGKAPKLLIYHASYRYTGVPSRFSGSGSGTDFTFTISSLQPEDIATYYCQQRYSLWRTFGQGTKLEIK
notes: L1L3-based mutant; Full-length IgG
KD ratio pH 5.5/7.4 [3]: 6
KD ratio pH 5.5/7.4 [4]: 5
Kd [5]: 24 nM
koff [5]: 0.00261 s⁻¹
kon [5]: 110000 M⁻¹ s⁻¹
Kd [6]: 4 nM
koff [6]: 0.000201 s⁻¹
kon [6]: 50200 M⁻¹ s⁻¹
Kd [1]: 36 nM
koff [1]: 0.00729 s⁻¹
kon [1]: 204000 M⁻¹ s⁻¹
Kd [2]: 7.2 nM
koff [2]: 0.000469 s⁻¹
kon [2]: 64800 M⁻¹ s⁻¹

B10: 5L1724H23_6L3 (antibody, V domains shown)
VH: QVQLVQSGAEVKKPGASVKVSCKASGYTFTSYYMHWVRQAPGQGLEWMGEIHPSGGRTNYNEKFKSRVTMTRDTSTSTVYMELSSLRSEDTAVYYCARERPLYAMDYWGQGTTVTVSS
VL: DIQMTQSPSSLSASVGDRVTITCKASQDVHTAVAWYQQKPGKAPKLLIYSASHRYTGVPSRFSGSGSGTDFTFTISSLQPEDIATYYCQQRYSLWRTFGQGTKLEIK
notes: as for B5
KD ratio pH 5.5/7.4 [3]: 24.5
KD ratio pH 5.5/7.4 [4]: 18.4
Kd [5]: 540 nM
koff [5]: 0.0407 s⁻¹
kon [5]: 75400 M⁻¹ s⁻¹
Kd [6]: 22 nM
koff [6]: 0.00079 s⁻¹
kon [6]: 35900 M⁻¹ s⁻¹
Kd [1]: 756 nM
koff [1]: 0.121 s⁻¹
kon [1]: 160000 M⁻¹ s⁻¹
Kd [2]: 41 nM
koff [2]: 0.00218 s⁻¹
kon [2]: 53100 M⁻¹ s⁻¹
